In PMC4139326, “Functional Roles of the Dimer-Interface Residues in Human Ornithine Decarboxylase” (PLoS ONE, 2014) one finds Kd data, which are given here for 13 proteins.

The data set deals with the molecule itself. The data set is described as follows: AUC; sedimentation velocity, 0.3, 0.6 and 0.9 mg/ml protein in 50 mM Tris-HCl pH 7.5, 293 K, 42,000 rpm; global fit to a monomer-dimer equilibrium model (SEDPHAT); dimer to monomers.

B1: human ornithine decarboxylase, wild type (enzyme)
chain: EEFDCHFLDEGFTAKDILDQKINEVSSSDDKDAFYVADLGDILKKHLRWLKALPRVTPFYAVKCNDSKAIVKTLAATGTGFDCASKTEIQLVQSLGVPPERIIYANPCKQVSQIKYAANNGVQMMTFDSEVELMKVARAHPKAKLVLRIATDDSKAVCRLSVKFGATLRTSRLLLERAKELNIDVVGVSFHVGSGCTDPETFVQAISDARCVFDMGAEVGFSMYLLDIGGGFPGSEDVKLKFEEITGVINPALDKYFPSDSGVRIIAEPGRYYVASAFTLAVNIIAKKIVLKEQTGSDDEDESSEQTFMYYVNDGVYGSFNCILYDHAHVKPLLQKRPKPDEKYYSSSIWGPTCDGLDRIVERCDLPEMHVGDWMLFENMGAYTVAAASTFNGFQRPTIYYVMSGPAWQLMQQFQNPDFPP
notes: ornithine decarboxylase (ODC), human; cDNA cloned into pQE30; Written as the protomer; it associates with itself to the dimer; also called ODC
As usually defined, the Kd is the constant that tells how readily two partners part at equilibrium. In the case of B1, the Kd was found to be 100 ± 1 nM.

B2: human ornithine decarboxylase D134A (enzyme)
chain: EEFDCHFLDEGFTAKDILDQKINEVSSSDDKDAFYVADLGDILKKHLRWLKALPRVTPFYAVKCNDSKAIVKTLAATGTGFDCASKTEIQLVQSLGVPPERIIYANPCKQVSQIKYAANNGVQMMTFASEVELMKVARAHPKAKLVLRIATDDSKAVCRLSVKFGATLRTSRLLLERAKELNIDVVGVSFHVGSGCTDPETFVQAISDARCVFDMGAEVGFSMYLLDIGGGFPGSEDVKLKFEEITGVINPALDKYFPSDSGVRIIAEPGRYYVASAFTLAVNIIAKKIVLKEQTGSDDEDESSEQTFMYYVNDGVYGSFNCILYDHAHVKPLLQKRPKPDEKYYSSSIWGPTCDGLDRIVERCDLPEMHVGDWMLFENMGAYTVAAASTFNGFQRPTIYYVMSGPAWQLMQQFQNPDFPP
notes: ornithine decarboxylase (ODC), human; cDNA cloned into pQE30
B2: the Kd was found to be 120 ± 12 nM.

B3: human ornithine decarboxylase Y331S/Y389D/R277S/D332E/R165E (enzyme)
chain: EEFDCHFLDEGFTAKDILDQKINEVSSSDDKDAFYVADLGDILKKHLRWLKALPRVTPFYAVKCNDSKAIVKTLAATGTGFDCASKTEIQLVQSLGVPPERIIYANPCKQVSQIKYAANNGVQMMTFDSEVELMKVARAHPKAKLVLRIATDDSKAVCELSVKFGATLRTSRLLLERAKELNIDVVGVSFHVGSGCTDPETFVQAISDARCVFDMGAEVGFSMYLLDIGGGFPGSEDVKLKFEEITGVINPALDKYFPSDSGVRIIAEPGSYYVASAFTLAVNIIAKKIVLKEQTGSDDEDESSEQTFMYYVNDGVYGSFNCILSEHAHVKPLLQKRPKPDEKYYSSSIWGPTCDGLDRIVERCDLPEMHVGDWMLFENMGADTVAAASTFNGFQRPTIYYVMSGPAWQLMQQFQNPDFPP
notes: ornithine decarboxylase (ODC), human; cDNA cloned into pQE30; also called [ODC_4M]+R165E
For B3, the Kd was determined as 13500 ± 450 nM.

B4: human ornithine decarboxylase Y331S/Y389D/R277S/D332E (enzyme)
chain: EEFDCHFLDEGFTAKDILDQKINEVSSSDDKDAFYVADLGDILKKHLRWLKALPRVTPFYAVKCNDSKAIVKTLAATGTGFDCASKTEIQLVQSLGVPPERIIYANPCKQVSQIKYAANNGVQMMTFDSEVELMKVARAHPKAKLVLRIATDDSKAVCRLSVKFGATLRTSRLLLERAKELNIDVVGVSFHVGSGCTDPETFVQAISDARCVFDMGAEVGFSMYLLDIGGGFPGSEDVKLKFEEITGVINPALDKYFPSDSGVRIIAEPGSYYVASAFTLAVNIIAKKIVLKEQTGSDDEDESSEQTFMYYVNDGVYGSFNCILSEHAHVKPLLQKRPKPDEKYYSSSIWGPTCDGLDRIVERCDLPEMHVGDWMLFENMGADTVAAASTFNGFQRPTIYYVMSGPAWQLMQQFQNPDFPP
notes: ornithine decarboxylase (ODC), human; cDNA cloned into pQE30; also called ODC_4M
B4: the equilibrium dissociation constant (Kd) is 15900 ± 80 nM.

B5: human ornithine decarboxylase Y331S/Y389D (enzyme)
chain: EEFDCHFLDEGFTAKDILDQKINEVSSSDDKDAFYVADLGDILKKHLRWLKALPRVTPFYAVKCNDSKAIVKTLAATGTGFDCASKTEIQLVQSLGVPPERIIYANPCKQVSQIKYAANNGVQMMTFDSEVELMKVARAHPKAKLVLRIATDDSKAVCRLSVKFGATLRTSRLLLERAKELNIDVVGVSFHVGSGCTDPETFVQAISDARCVFDMGAEVGFSMYLLDIGGGFPGSEDVKLKFEEITGVINPALDKYFPSDSGVRIIAEPGRYYVASAFTLAVNIIAKKIVLKEQTGSDDEDESSEQTFMYYVNDGVYGSFNCILSDHAHVKPLLQKRPKPDEKYYSSSIWGPTCDGLDRIVERCDLPEMHVGDWMLFENMGADTVAAASTFNGFQRPTIYYVMSGPAWQLMQQFQNPDFPP
notes: as for B2
Turning to B5, the Kd turned out to be 160 ± 1 nM.

B6: human ornithine decarboxylase Y389D (enzyme)
chain: EEFDCHFLDEGFTAKDILDQKINEVSSSDDKDAFYVADLGDILKKHLRWLKALPRVTPFYAVKCNDSKAIVKTLAATGTGFDCASKTEIQLVQSLGVPPERIIYANPCKQVSQIKYAANNGVQMMTFDSEVELMKVARAHPKAKLVLRIATDDSKAVCRLSVKFGATLRTSRLLLERAKELNIDVVGVSFHVGSGCTDPETFVQAISDARCVFDMGAEVGFSMYLLDIGGGFPGSEDVKLKFEEITGVINPALDKYFPSDSGVRIIAEPGRYYVASAFTLAVNIIAKKIVLKEQTGSDDEDESSEQTFMYYVNDGVYGSFNCILYDHAHVKPLLQKRPKPDEKYYSSSIWGPTCDGLDRIVERCDLPEMHVGDWMLFENMGADTVAAASTFNGFQRPTIYYVMSGPAWQLMQQFQNPDFPP
notes: as for B2
On to B6, for which the Kd came to 690 ± 5 nM.

B7: human ornithine decarboxylase Y331S/Y389D/R277S/D332E/K169A (enzyme)
chain: EEFDCHFLDEGFTAKDILDQKINEVSSSDDKDAFYVADLGDILKKHLRWLKALPRVTPFYAVKCNDSKAIVKTLAATGTGFDCASKTEIQLVQSLGVPPERIIYANPCKQVSQIKYAANNGVQMMTFDSEVELMKVARAHPKAKLVLRIATDDSKAVCRLSVAFGATLRTSRLLLERAKELNIDVVGVSFHVGSGCTDPETFVQAISDARCVFDMGAEVGFSMYLLDIGGGFPGSEDVKLKFEEITGVINPALDKYFPSDSGVRIIAEPGSYYVASAFTLAVNIIAKKIVLKEQTGSDDEDESSEQTFMYYVNDGVYGSFNCILSEHAHVKPLLQKRPKPDEKYYSSSIWGPTCDGLDRIVERCDLPEMHVGDWMLFENMGADTVAAASTFNGFQRPTIYYVMSGPAWQLMQQFQNPDFPP
notes: ornithine decarboxylase (ODC), human; cDNA cloned into pQE30; also called [ODC_4M]+K169A
With B7, the Kd stood at 1490 ± 40 nM.

B8: human ornithine decarboxylase R165E (enzyme)
chain: EEFDCHFLDEGFTAKDILDQKINEVSSSDDKDAFYVADLGDILKKHLRWLKALPRVTPFYAVKCNDSKAIVKTLAATGTGFDCASKTEIQLVQSLGVPPERIIYANPCKQVSQIKYAANNGVQMMTFDSEVELMKVARAHPKAKLVLRIATDDSKAVCELSVKFGATLRTSRLLLERAKELNIDVVGVSFHVGSGCTDPETFVQAISDARCVFDMGAEVGFSMYLLDIGGGFPGSEDVKLKFEEITGVINPALDKYFPSDSGVRIIAEPGRYYVASAFTLAVNIIAKKIVLKEQTGSDDEDESSEQTFMYYVNDGVYGSFNCILYDHAHVKPLLQKRPKPDEKYYSSSIWGPTCDGLDRIVERCDLPEMHVGDWMLFENMGAYTVAAASTFNGFQRPTIYYVMSGPAWQLMQQFQNPDFPP
notes: as for B2
For the protein B8, the Kd came to 110 ± 1 nM.

B9: human ornithine decarboxylase Y331S/Y389D/R277S/D332E/V322D/D134A (enzyme)
chain: EEFDCHFLDEGFTAKDILDQKINEVSSSDDKDAFYVADLGDILKKHLRWLKALPRVTPFYAVKCNDSKAIVKTLAATGTGFDCASKTEIQLVQSLGVPPERIIYANPCKQVSQIKYAANNGVQMMTFASEVELMKVARAHPKAKLVLRIATDDSKAVCRLSVKFGATLRTSRLLLERAKELNIDVVGVSFHVGSGCTDPETFVQAISDARCVFDMGAEVGFSMYLLDIGGGFPGSEDVKLKFEEITGVINPALDKYFPSDSGVRIIAEPGSYYVASAFTLAVNIIAKKIVLKEQTGSDDEDESSEQTFMYYVNDGDYGSFNCILSEHAHVKPLLQKRPKPDEKYYSSSIWGPTCDGLDRIVERCDLPEMHVGDWMLFENMGADTVAAASTFNGFQRPTIYYVMSGPAWQLMQQFQNPDFPP
notes: ornithine decarboxylase (ODC), human; cDNA cloned into pQE30; also called [ODC_4M]+[V322D/D134A]; sextuple mutant
Regarding B9, the Kd is 52800 ± 500 nM.

B10: human ornithine decarboxylase Y331S/Y389D/R277S/D332E/K294A (enzyme)
chain: EEFDCHFLDEGFTAKDILDQKINEVSSSDDKDAFYVADLGDILKKHLRWLKALPRVTPFYAVKCNDSKAIVKTLAATGTGFDCASKTEIQLVQSLGVPPERIIYANPCKQVSQIKYAANNGVQMMTFDSEVELMKVARAHPKAKLVLRIATDDSKAVCRLSVKFGATLRTSRLLLERAKELNIDVVGVSFHVGSGCTDPETFVQAISDARCVFDMGAEVGFSMYLLDIGGGFPGSEDVKLKFEEITGVINPALDKYFPSDSGVRIIAEPGSYYVASAFTLAVNIIAKAIVLKEQTGSDDEDESSEQTFMYYVNDGVYGSFNCILSEHAHVKPLLQKRPKPDEKYYSSSIWGPTCDGLDRIVERCDLPEMHVGDWMLFENMGADTVAAASTFNGFQRPTIYYVMSGPAWQLMQQFQNPDFPP
notes: ornithine decarboxylase (ODC), human; cDNA cloned into pQE30; also called [ODC_4M]+K294A
On to B10, for which the Kd was determined as 260 ± 60 nM.

B11: human ornithine decarboxylase Y331S/Y389D/R277S/D332E/V322D (enzyme)
chain: EEFDCHFLDEGFTAKDILDQKINEVSSSDDKDAFYVADLGDILKKHLRWLKALPRVTPFYAVKCNDSKAIVKTLAATGTGFDCASKTEIQLVQSLGVPPERIIYANPCKQVSQIKYAANNGVQMMTFDSEVELMKVARAHPKAKLVLRIATDDSKAVCRLSVKFGATLRTSRLLLERAKELNIDVVGVSFHVGSGCTDPETFVQAISDARCVFDMGAEVGFSMYLLDIGGGFPGSEDVKLKFEEITGVINPALDKYFPSDSGVRIIAEPGSYYVASAFTLAVNIIAKKIVLKEQTGSDDEDESSEQTFMYYVNDGDYGSFNCILSEHAHVKPLLQKRPKPDEKYYSSSIWGPTCDGLDRIVERCDLPEMHVGDWMLFENMGADTVAAASTFNGFQRPTIYYVMSGPAWQLMQQFQNPDFPP
notes: ornithine decarboxylase (ODC), human; cDNA cloned into pQE30; also called [ODC_4M]+V322D
Take B11: the Kd was found to be 25200 ± 30 nM.

B12: human ornithine decarboxylase Y331S/Y389D/R277S (enzyme)
chain: EEFDCHFLDEGFTAKDILDQKINEVSSSDDKDAFYVADLGDILKKHLRWLKALPRVTPFYAVKCNDSKAIVKTLAATGTGFDCASKTEIQLVQSLGVPPERIIYANPCKQVSQIKYAANNGVQMMTFDSEVELMKVARAHPKAKLVLRIATDDSKAVCRLSVKFGATLRTSRLLLERAKELNIDVVGVSFHVGSGCTDPETFVQAISDARCVFDMGAEVGFSMYLLDIGGGFPGSEDVKLKFEEITGVINPALDKYFPSDSGVRIIAEPGSYYVASAFTLAVNIIAKKIVLKEQTGSDDEDESSEQTFMYYVNDGVYGSFNCILSDHAHVKPLLQKRPKPDEKYYSSSIWGPTCDGLDRIVERCDLPEMHVGDWMLFENMGADTVAAASTFNGFQRPTIYYVMSGPAWQLMQQFQNPDFPP
notes: as for B2
For B12, the Kd was found to be 1030 ± 4 nM.

B13: human ornithine decarboxylase Y331S/Y389D/R277S/D332E/D134A (enzyme)
chain: EEFDCHFLDEGFTAKDILDQKINEVSSSDDKDAFYVADLGDILKKHLRWLKALPRVTPFYAVKCNDSKAIVKTLAATGTGFDCASKTEIQLVQSLGVPPERIIYANPCKQVSQIKYAANNGVQMMTFASEVELMKVARAHPKAKLVLRIATDDSKAVCRLSVKFGATLRTSRLLLERAKELNIDVVGVSFHVGSGCTDPETFVQAISDARCVFDMGAEVGFSMYLLDIGGGFPGSEDVKLKFEEITGVINPALDKYFPSDSGVRIIAEPGSYYVASAFTLAVNIIAKKIVLKEQTGSDDEDESSEQTFMYYVNDGVYGSFNCILSEHAHVKPLLQKRPKPDEKYYSSSIWGPTCDGLDRIVERCDLPEMHVGDWMLFENMGADTVAAASTFNGFQRPTIYYVMSGPAWQLMQQFQNPDFPP
notes: ornithine decarboxylase (ODC), human; cDNA cloned into pQE30; also called [ODC_4M]+D134A
As to B13, the equilibrium dissociation constant (Kd) came to 13300 ± 40 nM.
